Measured values as given in patent US20220162328A1 (SHANDONG BOAN BIOTECHNOLOGY, published 2022).
Positions count from the first letter of the chain named.

T1: receptors of IL4/IL13 on TF-1 cells and PBMC (IL4 receptor) (human, UniProt P24394 26-825)
T1 sequence (looked up): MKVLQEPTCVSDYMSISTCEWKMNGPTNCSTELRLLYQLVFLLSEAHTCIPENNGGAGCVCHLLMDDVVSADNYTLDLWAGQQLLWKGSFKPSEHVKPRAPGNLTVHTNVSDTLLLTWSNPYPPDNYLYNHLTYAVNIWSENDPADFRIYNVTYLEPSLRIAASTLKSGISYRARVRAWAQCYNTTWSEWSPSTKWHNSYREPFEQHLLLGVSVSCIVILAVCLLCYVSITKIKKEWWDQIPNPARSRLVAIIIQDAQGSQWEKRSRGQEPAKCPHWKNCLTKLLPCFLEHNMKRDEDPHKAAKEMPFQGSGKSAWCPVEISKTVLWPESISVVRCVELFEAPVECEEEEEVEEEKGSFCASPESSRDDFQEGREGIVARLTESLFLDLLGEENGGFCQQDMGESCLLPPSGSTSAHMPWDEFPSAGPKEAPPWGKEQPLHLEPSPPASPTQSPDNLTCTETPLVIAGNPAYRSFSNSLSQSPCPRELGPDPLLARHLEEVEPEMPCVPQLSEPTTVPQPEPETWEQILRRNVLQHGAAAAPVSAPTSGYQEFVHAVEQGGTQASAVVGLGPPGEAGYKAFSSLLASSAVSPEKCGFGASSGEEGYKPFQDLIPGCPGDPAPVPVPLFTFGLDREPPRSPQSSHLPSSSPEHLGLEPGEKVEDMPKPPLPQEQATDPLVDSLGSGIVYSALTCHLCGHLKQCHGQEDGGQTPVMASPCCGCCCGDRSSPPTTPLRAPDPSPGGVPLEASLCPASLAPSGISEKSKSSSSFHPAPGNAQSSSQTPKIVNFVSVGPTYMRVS

T2: IL4R-Fc-biotin (UniProt P24394 26-232, biotinylated (sites not given))
T2 construct: also called IL4R-Fc protein (Sinobiological Co., Ltd., 10402-H02H); not shown: Fc part
T2 sequence (looked up): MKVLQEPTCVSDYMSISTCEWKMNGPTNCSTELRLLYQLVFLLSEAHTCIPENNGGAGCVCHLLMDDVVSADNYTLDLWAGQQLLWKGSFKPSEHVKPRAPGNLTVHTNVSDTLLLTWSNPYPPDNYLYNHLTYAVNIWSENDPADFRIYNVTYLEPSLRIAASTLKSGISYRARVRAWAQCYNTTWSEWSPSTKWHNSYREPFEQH

T3: human IL4R (10402-H08H, Sinobiological Co., Ltd.) (human, UniProt P24394 26-232)
T3 construct: Bought protein, coated on ELISA plates; also called IL4R-His protein; IL4R protein; not shown: His tag
T3 sequence (looked up): T2 sequence (looked up)

B1: Dupilumab (antibody, human IgG4 S228P, kappa, V domains shown)
VH: EVQLVESGGGLEQPGGSLRLSCAGSGFTFRDYAMTWVRQAPGKGLEWVSSISGSGGNTYYADSVKGRFTISRDNSKNTLYLQMNSLRAEDTAVYYCAKDRLSITIRPRYYGLDVWGQGTTVTVSS
VL: DIVMTQSPLSLPVTPGEPASISCRSSQSLLYSIGYNYLDWYLQKSGQSPQLLIYLGSNRASGVPDRFSGSGSGTDFTLKISRVEAEDVGFYYCMQALQTPYTFGQGTKLEIKR
B2: IL4R-BA030-IgG4 (antibody, V domains shown)
VH: QVQLVESGGGVVQPGRSLRLSCAASGFTFSSYAIHWVRQAPGKGLEWVAVISYDGSKKYYADSVKGRFTISRDNSKNTLYLQMNSLRAEDTAVYYCAREYYYGMDVWGQGTTVTVSS
VL: DIVMTQSPSTLSASVGDRVTITCRASQSISNWLAWYQQKPGKAPKRLIYKASSLESGVPSRFSGSGSGTEFTLTISSLQPDDFATYYCQQYNRYFTFGQGTKLEIKR
notes: also called IL4RQ14-BA030
B3: IL4R-BA173-IgG4 (antibody, V domains shown)
VH: QVQLVESGGGVVQPGRSLRLSCAASGFTFSSYAMHWVRQAPGKGLEWVAVISYDGSNKYYADSVKGRFTISRDNSKNTLYLQMNSLRAEDTAVYYCARGLTTVRGVLYWGQGTLVTVSS
VL: DIVMTQSPSTLSASVGDRVTITCRASQSISTRLAWYQQKPGKAPKLLVYWASSLESGVPSRFSGSGSGTEFTLAISSLQPDDFGTYYCQQYTSYSWTFGQGTKLEIKR
notes: also called IL4RQ6-BA173
B4: IL4R-BA167-IgG4 (antibody, V domains shown)
VH: B3 VH
VL: EIVMTQSPSSLSASLGDRVTITCRASQNIGSRLAWYQQKPGKAPKLLIYKASSLESGVPSRFSGSGSGTEFTLTISSLQPDDFATYYCQQYNSYSWTFGQGTKLEIKR
notes: also called IL4RQ6-BA167
B5: BA420 (antibody, IgG4, V domains shown)
VH: QVQLVESGGGAVQPGRSLRVSCAASGFTFSSHGMDWVRQVPGKGLEWVAVISYDGKKKYYADSVKGRFTISRDNSKNTLYLQMNSLRAEDTAIYYCVKESRYYYGMDVWGQGTTVTVSS
VL: DIVMTQSPSTLSASVGDRVTITCRASPSISSWLAWYQQKPGKAPKVLIYKSSRLESGVPSRFSGNGSGTEFTLTISSLQPDDFATYYCQQYNGYSWTFGQGTKVEIKR
notes: also called IL4RQ24-BA420
B6: BA034 (antibody, IgG4, V domains shown)
VH: B5 VH with G8R
VL: B5 VL with V3Q, P27Q, I29F, S30N, V46L, N65S
notes: also called IL4RQ14-BA034
B7: BA1301 (antibody, IgG4, V domains shown)
VH: QVQLVESGGGVVQPGRSLRLSCAASGLTFSSYAMHWVRQAPGKGLEWVAVISYDGSNKYYADSVKGRFTISRDNSKNTLYLQMNSLRAEDTAVYYCARGFGYFDLWGRGTLVTVSS
VL: DIQMTQSPSTLSASVGDRVTITCRASQSITRRLAWYQQKPGKAPKLLIYKASSLESGVPSRFSGSGSGTEFTLTISSLQPDDFATYYCQQYVSFSRTFGQGTKVEIKR
notes: also called IL4RQ29-BA1301

target: T1, receptors of IL4/IL13 on TF-1 cells and …; assay: cell-based or functional assay

Going from B1 to B2, the “IC50 (IL4, ng/mL), PBMC, inhibition of IL4-promoted proliferation” value rises from 2.87 ng/mL to 8.09 ng/mL (2.8-fold).

B3 and B4 are within 1.5-fold of each other in “IC50 (IL4, ng/mL), PBMC, inhibition of IL4-promoted proliferation” value: 1.02 ng/mL for the first, 1.52 ng/mL for the second.

First: B1
Second: B2
The “IC50 (IL4, ng/mL), TF-1 Cells, inhibition of IL4-induced proliferation” value of the first is 3.5-fold lower: 65 ng/mL for the first, 227 ng/mL for the second.

Compared with B3, B4 is 2.1-fold higher in “IC50 (IL4, ng/mL), TF-1 Cells, inhibition of IL4-induced proliferation” value: 66 ng/mL for the first, 139 ng/mL for the second.

B1 and B2 are the same in “IC50 (IL13, ng/mL), TF-1 Cells, inhibition of IL13-induced proliferation” value: 9 ng/mL for the first, 9 ng/mL for the second.

B3 and B4 are within 1.5-fold of each other in “IC50 (IL13, ng/mL), TF-1 Cells, inhibition of IL13-induced proliferation” value: 6 ng/mL for the first, 5 ng/mL for the second.

target: T2, IL4R-Fc-biotin; assay: competition ELISA: IL4 coated, IL4R-Fc-biotin (0.4 µg/ml) with antibody dilutions
Experimental: IL4 (11846-HANE, Sinobiological Co., Ltd.) was coated at the concentration of 0.2 μg/ml in 100 μL/well at 4° C. overnight; 3% skimmed milk powder was used for blocking 1 h; at the same time, 50 μL of IL4R-Fc-biotin (0.4 μg/ml) and 50 μL of candidate antibody at different concentrations (16 μg/mL, 4 μg/mL, 1 μg/mL, 0.25 μg/mL, 0.0625 μg/mL, 0.015625 μg/mL, and 0.00390625 μg/mL), 100 μL in total, were added to the blocked ELISA plate and co-incubated at 37° C. for 1 h; after washing three times with PBST, […]/HRP (R&D, Cat. No.: 890803) was added, and incubated at 37° C. for 1 h; and 100 μL of TMB color developing solution (Beijing Meike Wande Co., Ltd., Cat. No.: 1001) was added to each well. Color development was stopped, after 10 min color development, with the addition of 50 μL of 2 M concentrated sulfuric acid, and OD450 was measured with a microplate reader.

B2 and B3 are within 1.5-fold of each other in IC50: 0.343 µg/mL for the first, 0.354 µg/mL for the second.

B4 and B5 are within 1.5-fold of each other in IC50: 0.458 µg/mL for the first, 0.334 µg/mL for the second.

B6 and B7 are within 1.5-fold of each other in IC50: 0.71 µg/mL for the first, 0.592 µg/mL for the second.

target: T3, human IL4R (10402-H08H, Sinobiological …); assay: ELISA: IL4R coated at graded concentrations (0.4-0 µg/ml), antibody fixed at 2 µg/ml
Experimental: CBS coating solution (pH 9.6 carbonic acid solution) was used to coat protein IL4R (10402-H08H, Sinobiological Co., Ltd.) at different concentrations (0.4 μg/ml, 0.2 μg/ml, 0.1 μg/ml, 0.05 μg/ml, 0.025 μg/ml, 0.0125 μg/ml, 0.00625 μg/ml and 0 μg/ml) in 100 μL/well at 4° C. overnight; 3% skimmed milk powder was used for blocking 1 h at 37° C.; 100 μL of candidate antibody at 2 μg/ml was added to each well and incubated at 37° C. for 1 h; and then goat anti-human IgG (H+L)/HRP (KPL, Cat. No.: 474-1006) was added, and incubated at 37° C. for 1 h. Color development was stopped, after 10 min color development, with the addition of 50 μL of 2 M H₂SO₄ to each well, and OD450 was measured with a microplate reader. Compared with the control antibody, 3 antibodies had close binding sensitivity to IL4R protein.

B2 and B3 are within 1.5-fold of each other in EC50: 0.031 µg/mL for the first, 0.025 µg/mL for the second.

B4 showed an EC50 of 0.045 µg/mL.

target: T2, IL4R-Fc-biotin; assay: competition ELISA: IL4 coated, IL4R-Fc-biotin (0.4 µg/ml) pre-incubated with antibody dilutions
Experimental: IL4 (11846-HANE, Sinobiological Co., Ltd.) was coated at the concentration of 0.2 μg/ml in 100 μL/well at 4° C. overnight; 3% skimmed milk powder was used for blocking 1 h; at the same time, IL4R-Fc-biotin (0.4 μg/ml) and candidate antibody at different concentrations (30 μg/mL, 7.5 μg/mL, 1.875 μg/mL, […], 0.1171875 μg/mL and 0 μg/mL) were co-incubated at 37° C. for 1 h, then added to the blocked ELISA plate and co-incubated at 37° C. for another 1 h; then […]/HRP (R&D, Cat. No.: 890803) was added, and incubated at 37° C. for 1 h; color development was stopped, after 10 min color development, with the addition of 50 μL of 2M H₂SO₄ to each well. OD450 was measured with a microplate reader.

B2 and B3 are within 1.5-fold of each other in IC50: 0.346 µg/mL for the first, 0.367 µg/mL for the second.

With B4 the IC50 was 0.477 µg/mL.

target: T2, IL4R-Fc-biotin; assay: competition ELISA: IL13RA1 coated, IL4R-Fc-biotin (0.24 µg/ml) and IL13 (1 µg/ml) pre-incubated with antibody dilutions
Experimental: IL13RA1 (10943-H08H, Sinobiological Co., Ltd.) was coated at the concentration of 0.8 μg/ml in 100 μL/well at 4° C. overnight; 3% skimmed milk powder was used for blocking 1 h; at the same time, IL4R-Fc-biotin (0.24 μg/ml) and IL13 (1 μg/ml, 10369-HANE, Sinobiological Co., Ltd.) and candidate antibody at different concentrations (30 μg/mL, 7.5 μg/mL, 1.875 μg/mL, 0.46875 μg/mL, 0.1171875 μg/mL and 0 μg/mL) were co-incubated at 37° C. for 1 h, then added to the blocked ELISA plate and co-incubated at 37° C. for another 1 h; after washing three times with PBST, […]/HRP (R&D, Cat. No.: 890803) was added, and incubated at 37° C. for 1 h; and after washing four times with PBST, TMB was used for color development for 10 min. 50 μL of 2M H₂SO₄ was added to each well to stop color development. OD450 was measured with a microplate reader.

B2 and B3 are within 1.5-fold of each other in IC50: 0.381 µg/mL for the first, 0.302 µg/mL for the second.

Work on B4 yielded an IC50 of 0.407 µg/mL.
